The target in this assay is T1, ATR (Mus musculus, UniProt Q9JKK8).
T1 construct: from tissue; host or cells: mouse testes extract
The assay can be described thus: MyoD phosphorylation (ATR kinase) assay with MyoD-derived peptide substrates. The format is biochemical. The conditions noted are these: in vitro kinase assay, 32P-γATP, room temperature 40 minutes. How it is done: ATR was captured on a 96 well plate previously coated first with goat anti-mouse antibodies (Pierce) and secondly with anti-ATR antibody 224C. A hybridoma which secretes antibody 224C was deposited with the American Type Culture Collection (ATCC), 12301 Parklawn Drive, Rockville, Md. 20852 on Nov. 7, 1996 and assigned ATCC Accession Nos. HB 12233. The 224C antibody was added to the plate at a concentration of […] in BT blocking buffer and incubated for at least 30 hours at 4° C. The wells were washed with TBS containing 0.05% Tween® 20 and mouse testes extract (prepared as described in Example 6 of WO 97/18323 published May 22, 1997 from International Application No. PCT/US96/19337, incorporated herein by reference) was added. […]
The supernatant, containing the ^32P-labeled peptide was transferred to P81 phosphocellulose paper, the paper was washed three times with 100 mM phosphoric acid (to remove unincorporated label) and once with ethanol, and Cerenkov radiation (in counts per minute, cpm) was counted in a scintillation counter.
MyoD is a 319 amino acid transcription factor that is often phosphorylated in cells. As described in Example 6 (of WO 97/18323), it has been determined that ATR phosphorylates MyoD in in vitro kinase assays and the target serine residue in myoD has been identified using a MyoD deletion peptide, B-HLH containing amino acids 102 through 165. […]

Here are results for one substance from patent US20020142976A1, “Materials and methods for modulating differentiation” (ICOS Corporation, priority 1998, published 2002).

T1 sequence (Q9JKK8 whole entry): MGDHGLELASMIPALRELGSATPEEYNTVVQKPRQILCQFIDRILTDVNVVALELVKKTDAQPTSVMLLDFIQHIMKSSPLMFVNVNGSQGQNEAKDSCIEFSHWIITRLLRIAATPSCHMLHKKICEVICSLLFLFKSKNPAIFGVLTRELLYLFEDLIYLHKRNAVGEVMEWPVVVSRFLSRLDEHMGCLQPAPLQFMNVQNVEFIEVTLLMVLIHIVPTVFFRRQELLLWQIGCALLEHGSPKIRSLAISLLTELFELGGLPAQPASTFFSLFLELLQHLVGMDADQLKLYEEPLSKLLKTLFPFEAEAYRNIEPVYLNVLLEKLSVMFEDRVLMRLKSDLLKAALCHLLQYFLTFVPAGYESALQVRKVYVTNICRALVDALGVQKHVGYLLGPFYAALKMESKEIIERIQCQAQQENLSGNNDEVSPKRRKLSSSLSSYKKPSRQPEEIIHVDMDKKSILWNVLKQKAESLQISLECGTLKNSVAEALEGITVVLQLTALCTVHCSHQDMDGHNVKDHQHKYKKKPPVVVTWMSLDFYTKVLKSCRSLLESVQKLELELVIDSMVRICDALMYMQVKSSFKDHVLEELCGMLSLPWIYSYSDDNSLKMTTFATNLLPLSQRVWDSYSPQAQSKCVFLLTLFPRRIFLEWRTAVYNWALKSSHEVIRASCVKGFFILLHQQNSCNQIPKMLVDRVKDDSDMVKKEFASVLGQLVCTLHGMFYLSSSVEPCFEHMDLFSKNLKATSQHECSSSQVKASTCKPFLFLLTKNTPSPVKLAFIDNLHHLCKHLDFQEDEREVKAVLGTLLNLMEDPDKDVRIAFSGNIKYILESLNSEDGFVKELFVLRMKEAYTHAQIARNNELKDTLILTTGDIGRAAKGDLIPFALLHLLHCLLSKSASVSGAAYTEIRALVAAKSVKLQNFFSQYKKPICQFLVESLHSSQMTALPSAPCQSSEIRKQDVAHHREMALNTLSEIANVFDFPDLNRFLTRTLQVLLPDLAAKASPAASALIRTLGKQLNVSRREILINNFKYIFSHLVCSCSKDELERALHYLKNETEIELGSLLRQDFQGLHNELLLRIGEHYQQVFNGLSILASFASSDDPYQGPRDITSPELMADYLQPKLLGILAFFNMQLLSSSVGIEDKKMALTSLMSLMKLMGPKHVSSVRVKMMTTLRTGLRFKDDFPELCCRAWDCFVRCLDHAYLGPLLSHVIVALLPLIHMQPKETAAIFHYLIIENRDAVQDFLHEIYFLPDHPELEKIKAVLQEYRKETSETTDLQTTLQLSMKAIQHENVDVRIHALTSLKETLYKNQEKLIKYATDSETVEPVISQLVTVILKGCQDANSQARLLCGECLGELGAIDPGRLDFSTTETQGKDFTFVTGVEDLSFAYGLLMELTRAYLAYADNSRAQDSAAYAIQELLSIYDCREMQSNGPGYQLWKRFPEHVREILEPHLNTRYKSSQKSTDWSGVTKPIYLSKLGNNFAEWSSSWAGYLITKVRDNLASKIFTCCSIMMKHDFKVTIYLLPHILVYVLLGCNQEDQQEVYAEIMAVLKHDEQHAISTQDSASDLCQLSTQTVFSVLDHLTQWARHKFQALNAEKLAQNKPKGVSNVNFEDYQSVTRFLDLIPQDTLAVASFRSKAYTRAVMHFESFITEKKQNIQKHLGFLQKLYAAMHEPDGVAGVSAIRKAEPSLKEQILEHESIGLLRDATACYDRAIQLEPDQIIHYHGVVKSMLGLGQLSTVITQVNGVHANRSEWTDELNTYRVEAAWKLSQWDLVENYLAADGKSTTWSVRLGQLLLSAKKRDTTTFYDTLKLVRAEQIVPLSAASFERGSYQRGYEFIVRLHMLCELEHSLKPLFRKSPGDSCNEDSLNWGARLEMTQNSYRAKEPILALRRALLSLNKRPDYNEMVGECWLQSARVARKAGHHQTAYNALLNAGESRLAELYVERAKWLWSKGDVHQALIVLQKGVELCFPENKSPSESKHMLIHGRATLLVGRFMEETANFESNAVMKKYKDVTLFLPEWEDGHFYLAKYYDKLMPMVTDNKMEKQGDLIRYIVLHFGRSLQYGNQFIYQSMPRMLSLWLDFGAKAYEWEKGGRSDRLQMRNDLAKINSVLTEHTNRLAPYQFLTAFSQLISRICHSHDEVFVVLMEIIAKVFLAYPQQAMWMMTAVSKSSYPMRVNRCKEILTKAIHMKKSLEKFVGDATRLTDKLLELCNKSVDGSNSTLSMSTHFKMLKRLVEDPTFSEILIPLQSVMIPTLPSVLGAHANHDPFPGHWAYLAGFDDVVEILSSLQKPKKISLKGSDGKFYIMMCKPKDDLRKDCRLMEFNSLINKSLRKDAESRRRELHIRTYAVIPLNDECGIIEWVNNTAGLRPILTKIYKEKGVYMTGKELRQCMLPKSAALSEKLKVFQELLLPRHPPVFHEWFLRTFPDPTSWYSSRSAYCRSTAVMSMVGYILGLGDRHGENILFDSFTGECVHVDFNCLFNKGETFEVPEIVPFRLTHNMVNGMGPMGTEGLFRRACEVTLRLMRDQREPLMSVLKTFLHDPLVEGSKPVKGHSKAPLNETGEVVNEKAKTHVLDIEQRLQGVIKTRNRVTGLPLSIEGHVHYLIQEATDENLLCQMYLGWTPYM
T1 sequence (Q8BMG1 whole entry partner): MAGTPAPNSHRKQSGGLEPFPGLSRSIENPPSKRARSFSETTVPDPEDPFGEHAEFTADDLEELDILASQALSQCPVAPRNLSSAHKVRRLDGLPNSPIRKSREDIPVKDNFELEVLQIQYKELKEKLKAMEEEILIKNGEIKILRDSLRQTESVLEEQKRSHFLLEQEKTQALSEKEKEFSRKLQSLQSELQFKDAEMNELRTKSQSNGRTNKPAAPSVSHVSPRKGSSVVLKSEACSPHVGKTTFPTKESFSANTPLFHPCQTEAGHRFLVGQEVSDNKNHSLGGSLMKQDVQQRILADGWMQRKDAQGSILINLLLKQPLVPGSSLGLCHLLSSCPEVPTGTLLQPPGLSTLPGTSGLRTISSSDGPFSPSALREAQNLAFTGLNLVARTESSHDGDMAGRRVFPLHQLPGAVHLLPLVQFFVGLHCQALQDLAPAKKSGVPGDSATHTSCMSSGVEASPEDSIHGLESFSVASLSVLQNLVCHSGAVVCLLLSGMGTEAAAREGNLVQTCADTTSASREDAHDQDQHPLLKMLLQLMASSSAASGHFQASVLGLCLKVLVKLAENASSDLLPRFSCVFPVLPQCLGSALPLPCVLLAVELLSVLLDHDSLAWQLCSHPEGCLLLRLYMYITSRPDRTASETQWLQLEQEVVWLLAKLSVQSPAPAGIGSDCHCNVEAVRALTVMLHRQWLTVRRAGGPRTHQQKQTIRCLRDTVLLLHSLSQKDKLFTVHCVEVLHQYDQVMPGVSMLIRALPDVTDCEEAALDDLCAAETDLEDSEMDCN

Turning to “NH2-Leu-Lys-Arg-Cys-Thr-Ser-Ser-Asn-Pro-Asn-Gln-Arg-Leu-Pro-Lys-COOH (H-LKRCTSSNPNQRLPK-OH) [IDH22]”, the “phosphorylation of peptide by ATR” value was “phosphorylated”.
